Measurements as given in patent publication US20040205843A1 (NORTH CAROLINA STATE UNIVERSITY, published 2004).

T1: Full length GST-AL1 1-352 (tomato golden mosaic virus (TGMV), UniProt P03567 1-352)
T1 sequence: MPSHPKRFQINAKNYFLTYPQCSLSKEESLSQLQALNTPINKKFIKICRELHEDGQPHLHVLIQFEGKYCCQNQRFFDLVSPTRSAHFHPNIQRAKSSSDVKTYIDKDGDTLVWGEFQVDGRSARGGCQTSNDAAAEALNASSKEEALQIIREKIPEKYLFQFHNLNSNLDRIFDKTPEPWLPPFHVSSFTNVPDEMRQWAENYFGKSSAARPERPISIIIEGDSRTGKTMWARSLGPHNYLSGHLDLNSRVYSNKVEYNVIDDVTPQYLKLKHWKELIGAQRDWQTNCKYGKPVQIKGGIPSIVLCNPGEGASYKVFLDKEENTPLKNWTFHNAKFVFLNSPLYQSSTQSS


Tests used:
[1] = molecular target: Wild type TGMV AL1 fused to the Gal4 DNA binding domain (pNSB736) (tomato golden mosaic virus (TGMV))
[2] = molecular target: T1, Full length GST-AL1 1-352; test: GST co-purification from insect cells, immunoblot

Row | Binder | oligomer. (oligomerization activity relative to wild type) [1] | binding result [2]
1 | AL1 D120 (Ala14) fused to the Gal4 activation domain (pNSB871) (other) MPSHPKRFQINAKNYFLTYPQCSLSKEESLSQLQALNTPINKKFIKICRELHEDGQPHLHVLIQFEGKYCCQNQRFFDLVSPTRSAHFHPNIQRAKSSSDVKTYIDKDGDTLVWGEFQVAGRSARGGCQTSNDAAAEALNASSKEEALQIIREKIPEKYLFQFHNLNSNLDRIFDKTPEPWLPPFHVSSFTNVPDEMRQWAENYFGKSSAARPERPISIIIEGDSRTGKTMWARSLGPHNYLSGHLDLNSRVYSNKVEYNVIDDVTPQYLKLKHWKELIGAQRDWQTNCKYGKPVQIKGGIPSIVLCNPGEGASYKVFLDKEENTPLKNWTFHNAKFVFLNSPLYQSSTQSS | 67 relative to wild type (100) | –
2 | TGMV AL1, wild type, full length, untagged (other, also called Rep; authentic AL1) MPSHPKRFQINAKNYFLTYPQCSLSKEESLSQLQALNTPINKKFIKICRELHEDGQPHLHVLIQFEGKYCCQNQRFFDLVSPTRSAHFHPNIQRAKSSSDVKTYIDKDGDTLVWGEFQVDGRSARGGCQTSNDAAAEALNASSKEEALQIIREKIPEKYLFQFHNLNSNLDRIFDKTPEPWLPPFHVSSFTNVPDEMRQWAENYFGKSSAARPERPISIIIEGDSRTGKTMWARSLGPHNYLSGHLDLNSRVYSNKVEYNVIDDVTPQYLKLKHWKELIGAQRDWQTNCKYGKPVQIKGGIPSIVLCNPGEGASYKVFLDKEENTPLKNWTFHNAKFVFLNSPLYQSSTQSS | – | binds
3 | AL1 KEE146 (Ala5), full length, untagged (other) MPSHPKRFQINAKNYFLTYPQCSLSKEESLSQLQALNTPINKKFIKICRELHEDGQPHLHVLIQFEGKYCCQNQRFFDLVSPTRSAHFHPNIQRAKSSSDVKTYIDKDGDTLVWGEFQVDGRSARGGCQTSNDAAAEALNASSAAAALQIIREKIPEKYLFQFHNLNSNLDRIFDKTPEPWLPPFHVSSFTNVPDEMRQWAENYFGKSSAARPERPISIIIEGDSRTGKTMWARSLGPHNYLSGHLDLNSRVYSNKVEYNVIDDVTPQYLKLKHWKELIGAQRDWQTNCKYGKPVQIKGGIPSIVLCNPGEGASYKVFLDKEENTPLKNWTFHNAKFVFLNSPLYQSSTQSS | – | binds
4 | AL1 Q-HN165 (Ala8), full length, untagged (other) MPSHPKRFQINAKNYFLTYPQCSLSKEESLSQLQALNTPINKKFIKICRELHEDGQPHLHVLIQFEGKYCCQNQRFFDLVSPTRSAHFHPNIQRAKSSSDVKTYIDKDGDTLVWGEFQVDGRSARGGCQTSNDAAAEALNASSKEEALQIIREKIPEKYLFAFAALNSNLDRIFDKTPEPWLPPFHVSSFTNVPDEMRQWAENYFGKSSAARPERPISIIIEGDSRTGKTMWARSLGPHNYLSGHLDLNSRVYSNKVEYNVIDDVTPQYLKLKHWKELIGAQRDWQTNCKYGKPVQIKGGIPSIVLCNPGEGASYKVFLDKEENTPLKNWTFHNAKFVFLNSPLYQSSTQSS | – | binds
5 | AL1 E-N140 (Ala4), full length, untagged (other) MPSHPKRFQINAKNYFLTYPQCSLSKEESLSQLQALNTPINKKFIKICRELHEDGQPHLHVLIQFEGKYCCQNQRFFDLVSPTRSAHFHPNIQRAKSSSDVKTYIDKDGDTLVWGEFQVDGRSARGGCQTSNDAAAAALAASSKEEALQIIREKIPEKYLFQFHNLNSNLDRIFDKTPEPWLPPFHVSSFTNVPDEMRQWAENYFGKSSAARPERPISIIIEGDSRTGKTMWARSLGPHNYLSGHLDLNSRVYSNKVEYNVIDDVTPQYLKLKHWKELIGAQRDWQTNCKYGKPVQIKGGIPSIVLCNPGEGASYKVFLDKEENTPLKNWTFHNAKFVFLNSPLYQSSTQSS | – | binds
6 | AL1 N-DR172 (Ala9), full length, untagged (other) MPSHPKRFQINAKNYFLTYPQCSLSKEESLSQLQALNTPINKKFIKICRELHEDGQPHLHVLIQFEGKYCCQNQRFFDLVSPTRSAHFHPNIQRAKSSSDVKTYIDKDGDTLVWGEFQVDGRSARGGCQTSNDAAAEALNASSKEEALQIIREKIPEKYLFQFHNLNSALAAIFDKTPEPWLPPFHVSSFTNVPDEMRQWAENYFGKSSAARPERPISIIIEGDSRTGKTMWARSLGPHNYLSGHLDLNSRVYSNKVEYNVIDDVTPQYLKLKHWKELIGAQRDWQTNCKYGKPVQIKGGIPSIVLCNPGEGASYKVFLDKEENTPLKNWTFHNAKFVFLNSPLYQSSTQSS | – | binds
7 | AL1 REK154 (Ala6), full length, untagged (other) MPSHPKRFQINAKNYFLTYPQCSLSKEESLSQLQALNTPINKKFIKICRELHEDGQPHLHVLIQFEGKYCCQNQRFFDLVSPTRSAHFHPNIQRAKSSSDVKTYIDKDGDTLVWGEFQVDGRSARGGCQTSNDAAAEALNASSKEEALQIIAAAIPEKYLFQFHNLNSNLDRIFDKTPEPWLPPFHVSSFTNVPDEMRQWAENYFGKSSAARPERPISIIIEGDSRTGKTMWARSLGPHNYLSGHLDLNSRVYSNKVEYNVIDDVTPQYLKLKHWKELIGAQRDWQTNCKYGKPVQIKGGIPSIVLCNPGEGASYKVFLDKEENTPLKNWTFHNAKFVFLNSPLYQSSTQSS | – | binds
8 | AL1 K-E179 (Ala10), full length, untagged (other) MPSHPKRFQINAKNYFLTYPQCSLSKEESLSQLQALNTPINKKFIKICRELHEDGQPHLHVLIQFEGKYCCQNQRFFDLVSPTRSAHFHPNIQRAKSSSDVKTYIDKDGDTLVWGEFQVDGRSARGGCQTSNDAAAEALNASSKEEALQIIREKIPEKYLFQFHNLNSNLDRIFDATPAPWLPPFHVSSFTNVPDEMRQWAENYFGKSSAARPERPISIIIEGDSRTGKTMWARSLGPHNYLSGHLDLNSRVYSNKVEYNVIDDVTPQYLKLKHWKELIGAQRDWQTNCKYGKPVQIKGGIPSIVLCNPGEGASYKVFLDKEENTPLKNWTFHNAKFVFLNSPLYQSSTQSS | – | binds
9 | AL1 N-DR172 (Ala9) fused to the Gal4 activation domain (pNSB762) (other) MPSHPKRFQINAKNYFLTYPQCSLSKEESLSQLQALNTPINKKFIKICRELHEDGQPHLHVLIQFEGKYCCQNQRFFDLVSPTRSAHFHPNIQRAKSSSDVKTYIDKDGDTLVWGEFQVDGRSARGGCQTSNDAAAEALNASSKEEALQIIREKIPEKYLFQFHNLNSALAAIFDKTPEPWLPPFHVSSFTNVPDEMRQWAENYFGKSSAARPERPISIIIEGDSRTGKTMWARSLGPHNYLSGHLDLNSRVYSNKVEYNVIDDVTPQYLKLKHWKELIGAQRDWQTNCKYGKPVQIKGGIPSIVLCNPGEGASYKVFLDKEENTPLKNWTFHNAKFVFLNSPLYQSSTQSS | 31 relative to wild type (100) | –
10 | AL1 1-180 (other) MPSHPKRFQINAKNYFLTYPQCSLSKEESLSQLQALNTPINKKFIKICRELHEDGQPHLHVLIQFEGKYCCQNQRFFDLVSPTRSAHFHPNIQRAKSSSDVKTYIDKDGDTLVWGEFQVDGRSARGGCQTSNDAAAEALNASSKEEALQIIREKIPEKYLFQFHNLNSNLDRIFDKTPEP | – | binds
11 | AL1 147-352 (other) ALQIIREKIPEKYLFQFHNLNSNLDRIFDKTPEPWLPPFHVSSFTNVPDEMRQWAENYFGKSSAARPERPISIIIEGDSRTGKTMWARSLGPHNYLSGHLDLNSRVYSNKVEYNVIDDVTPQYLKLKHWKELIGAQRDWQTNCKYGKPVQIKGGIPSIVLCNPGEGASYKVFLDKEENTPLKNWTFHNAKFVFLNSPLYQSSTQSS | – | binds
12 | AL1 134-352 (other) AAAEALNASSKEEALQIIREKIPEKYLFQFHNLNSNLDRIFDKTPEPWLPPFHVSSFTNVPDEMRQWAENYFGKSSAARPERPISIIIEGDSRTGKTMWARSLGPHNYLSGHLDLNSRVYSNKVEYNVIDDVTPQYLKLKHWKELIGAQRDWQTNCKYGKPVQIKGGIPSIVLCNPGEGASYKVFLDKEENTPLKNWTFHNAKFVFLNSPLYQSSTQSS | – | binds
